# B1: HDV Ribozyme (parent)
# chain: GGCCGGCAUGGUCCCAGCCUCCUCGCUGGCGCCGGCUGGGCAACAUUCCGAGGGGACCGUCCCCUCGGUAAUGGCGAAUGGGACCCA
# Variants of: B1
# Experiment: self-cleavage, relative activity (ratio to wild type); higher = more cleavage; co-transcriptional
row,Variant,self-cleavage
1,GGCCGGCAUGGUCCCAGCCUCCUCGCUGGCGCCGGCUGGGCAACAUUCCGAGGGGACCGUCCCCUCGGUAAUGGCGAGUGAGACCCA [A78G G81A],0.115
2,GGCCGGCAUGGUCCCAGCCUCCUCGCUGGCGCCGGCUGGGAAACAUUCCGAGGGGACCGUCCCCUCGGUAAUGGCGAAUGGGACCGA [C41A C86G],0.739
3,GGCCGGCAUGGUCCCAGCCUCCUCGCUGGCGCCGGGUGGGCAACAUUCCGAGGGGACCGUCCCCUCGGUAAUGGCGAAUGGGACACA [C36G C85A],0.251
4,GGCCGGCAUAGUCCCAGCCUCCUCGCUGGCGCCGGCUGGGCAACAUUCCGAGGGGACCGUCCCCUCGGUAAUGGCGAAUGGGACCCC [G10A A87C],0.764
5,AGCCGGCAUGGUCCCAGCCUCCUCGCUGGCGCCGGCUGGGCAACAUUCCGAGGGGACCGUCCCCUCGGUAAUGGCGAAUGGGACACA [G1A C85A],0.0852
6,GGCCGCCAUGGUCCCAGCCUCCUCGCUGGCGCCGGCUGGGCAACGUUCCGAGGGGACCGUCCCCUCGGUAAUGGCGAAUGGGACCCA [G6C A45G],0.361
7,GGCCGGCAUGGUCCCAGCCUCCUCGCUGGCGCCGGCUGGGCAACAUUCCGAGGGGACCGACCCCUCGGUAAUGCCGAAUGGGACCCA [U60A G74C],0.225
8,GGCCGGCAUGGUCCCAGCCUCCUCGCUGGCGGCGGCUGGGCAACAGUCCGAGGGGACCGUCCCCUCGGUAAUGGCGAAUGGGACCCA [C32G U46G],0
9,GUCCAGCAUGGUCCCAGCCUCCUCGCUGGCGCCGGCUGGGCAACAUUCCGAGGGGACCGUCCCCUCGGUAAUGGCGAAUGGGACCCA [G2U G5A],0.0171
10,GGCCGGCAUGGUCCCAGCGUCCUCGCUGGCGCCGGCUGGGCAACAUUCCGAGGGGACCGUCCCCUCGCUAAUGGCGAAUGGGACCCA [C19G G68C],0.0875
11,GGCCGGCAUGGUCCCAGCCUCCUCGCGGGCGCCGGCUGGGCAACAUUCCGAGGGGACCGUCCCCUCGGUAAUGGCGAAUGGGACCGA [U27G C86G],0.745
12,GGCCGGCAUGGUCCCAGCCUCCUCGCUGGCGCCGGCUGGGCAAGAUUCCGAGGCGACCGUCCCCUCGGUAAUGGCGAAUGGGACCCA [C44G G54C],0.831
13,GGCCGGCAUGGUACCAGCCUCCUCGCUGGCGCCGGCUGGGCAACAUUCCGAGGGGACCGUCGCCUCGGUAAUGGCGAAUGGGACCCA [C13A C62G],0.287
14,GGCCGGCAUGGUCCCAGCCUCCUCGCUGGCGCCGGCUGGGCAACAUACCGAGGGGACCGUCCCCACGGUAAUGGCGAAUGGGACCCA [U47A U65A],1.07
15,GGCCGGCUUGGUCCCAGCCUCCUCGCUGGCGCCGGCUGGGCAACAUUCCGAGGGGACCGUCCGCUCGGUAAUGGCGAAUGGGACCCA [A8U C63G],0.646
16,GGCCGGCAUGGUCCCAGACUCCUCGCUGGCGCCGGCUGGGCAACAUUCCGCGGGGACCGUCCCCUCGGUAAUGGCGAAUGGGACCCA [C18A A51C],0.0755
17,GGCCGGCGUGGUCCCAGCCUCCUCGCUCGCGCCGGCUGGGCAACAUUCCGAGGGGACCGUCCCCUCGGUAAUGGCGAAUGGGACCCA [A8G G28C],0
18,GGCCGGCAUGGUCCCAGCCUCCUCGCUGGCGCCGGCUGAGCAACAUUCCGAGGGGACCGUACCCUCGGUAAUGGCGAAUGGGACCCA [G39A C61A],0.546
19,GGCCGGCAUGGUCCCAGCCUCCUCGCUGGCGCCGGCUGGGCAACAUUCCGAGGAGACCGUCCCCUCGGUACUGGCGAAUGGGACCCA [G54A A71C],0.753
20,GGCGGGUAUGGUCCCAGCCUCCUCGCUGGCGCCGGCUGGGCAACAUUCCGAGGGGACCGUCCCCUCGGUAAUGGCGAAUGGGACCCA [C4G C7U],0.0234
21,GGCCGGCAUGGUCCCAGCCUCCUGGCUGGCGCCGGCUGGGCAACAUUCCGAGGGGACCGUCCACUCGGUAAUGGCGAAUGGGACCCA [C24G C63A],0.18
22,GGCCGGCAUGGUCCCAGCCUCUUCGCUGGCGCCGGCUGGGCAACAUUGCGAGGGGACCGUCCCCUCGGUAAUGGCGAAUGGGACCCA [C22U C48G],0.635

row,Variant,self-cleavage
1,GGCCGGCAUGGUCCCAGCCUCCUCGCUGGCGCCGGCUGGGCAACAUUCCGAGGGGACCCUCCCCUCGGUAUUGGCGAAUGGGACCCA [G59C A71U],1.06
2,GGCCGGGAUGGUCCCAGCCUCCUCGCUGGCGCCGGCUGGGCAACAUUCCGAGGGGACCGUCCCCUCGAUAAUGGCGAAUGGGACCCA [C7G G68A],0.0594
3,GGCCGGCAUGGUCCCAGCCUCCUCGCUAGCGCCGGCUGAGCAACAUUCCGAGGGGACCGUCCCCUCGGUAAUGGCGAAUGGGACCCA [G28A G39A],0.187
4,GGCCGGCAUGGUCCCUGCCUCCUCGCUGGCGCCGGCUGGGCAACAUUCCGAGGGGACCGUCCCCACGGUAAUGGCGAAUGGGACCCA [A16U U65A],0.831
5,GGCCGGCAUGGUCCCAGCCUCCUCACUCGCGCCGGCUGGGCAACAUUCCGAGGGGACCGUCCCCUCGGUAAUGGCGAAUGGGACCCA [G25A G28C],0.231
6,GGCCGGCAUGGUCCCGGCCUCCUCGCUGGCGCCGGCUGGGCAACCUUCCGAGGGGACCGUCCCCUCGGUAAUGGCGAAUGGGACCCA [A16G A45C],0.506
7,GGCCGGCAUGGUCCCAGCCUCCUCGCUGGCGCCGGCUGGGCAACAUUCCGAGGGGACCGUCCCCUCGGUAAUGGAGAAGGGGACCCA [C75A U79G],0.208
8,GGCCGGCAUGGUCCCAGCCUCCUCGCUGGCGCCGGCUGGGCAACACUCCGAGGGGACCCUCCCCUCGGUAAUGGCGAAUGGGACCCA [U46C G59C],0.965
9,GGCCGGCAUGGUCCCACCCUCCUCGCUGGCGCCGGCUGGGCAACAUUCCGAGGGGACCGUCCCCUCUGUAAUGGCGAAUGGGACCCA [G17C G67U],0.358
10,GGCCGGCAUGGUCCCAGCCUCCUCGCUGGCGCCGGCUGGGCAACAUUCCGAAGGGACCGUCCCCUCGGUAAUGGCGUAUGGGACCCA [G52A A77U],0.694
11,GGCCGCCAUGGUCCCAGCCUCCUCGCUGGCGCCGGCUGGGCAACAUUCCGAGGGGACCGUCCCCUCGGUAAUGGCGAAUGGGACCCU [G6C A87U],0.282
12,GGCCGGCAUGGUCCCAGCCUGCUCGCUGGCGCCGGCUGGGCAACAUUCCGAGGGGACCGUCCCCUCGGAAAUGGCGAAUGGGACCCA [C21G U69A],0.0426
13,GGCCGGCAUGGUGCCAGCCUCCUCGCUGGCGCCGGCUGGGCAACAUUCCGAGGGGACCGUCCCCUCGGUAAUGCCGAAUGGGACCCA [C13G G74C],0.128
14,GGCCGGCAUGGUCCCAGCCUCCUCGCUGGUGCCGGCUGGUCAACAUUCCGAGGGGACCGUCCCCUCGGUAAUGGCGAAUGGGACCCA [C30U G40U],0.114
15,GGCCGGCAUGGUCCCAGCCUCCUCGGUGGCGCCGGCUGGGCAACAUUCCGCGGGGACCGUCCCCUCGGUAAUGGCGAAUGGGACCCA [C26G A51C],1.13
16,GGCCGGCAUGGUCCCAGCCUCCUCGCUGGCGCCGGCUGGGCAACAUUCCGAUGGGGCCGUCCCCUCGGUAAUGGCGAAUGGGACCCA [G52U A56G],0.816
17,GGCCGGCAUGGUCCCAGUCUCCUCGAUGGCGCCGGCUGGGCAACAUUCCGAGGGGACCGUCCCCUCGGUAAUGGCGAAUGGGACCCA [C18U C26A],0.591
18,GGCCGUCAUGGUCCCAGCCUCCUCGCUGGCGCCGGCUGGGCAACAUUCCUAGGGGACCGUCCCCUCGGUAAUGGCGAAUGGGACCCA [G6U G50U],0.475
19,GGCCGGCCUGGUCCCAGCCUCCUCGCUGGCGCCGGCUGGGCAUCAUUCCGAGGGGACCGUCCCCUCGGUAAUGGCGAAUGGGACCCA [A8C A43U],0.289
20,GGCCGGCAUGGUCCCAGCCUCCUCGCUGGCGCCGGCUGGGCAACAUUCCGAGGGCACCGUCCCCUCGGUAAUGGCGAAUGGGACUCA [G55C C85U],0.923
21,GGCCGGCAUGGUCCCAGCCUCCUCGCCCGCGCCGGCUGGGCAACAUUCCGAGGGGACCGUCCCCUCGGUAAUGGCGAAUGGGACCCA [U27C G28C],0.123
22,GGCCGGCAUGCUCCCAGCCUCCUCGCUGGCGCCGGCUGGGCAACAUUCCGAGGGGACCGUUCCCUCGGUAAUGGCGAAUGGGACCCA [G11C C61U],0.157

row,Variant,self-cleavage
1,GGCCGGCAUGGUCCCAGCCUCCGCGCUGGCGCCGGCUGGGCAACAUUCCGAGGGGACCGUCCCCUCGGUAAUGGCCAAUGGGACCCA [U23G G76C],0.684
2,GGUCGGCAUGGUCCCAGCCUCCUCGCUGGCGCCGGCUGGGCAACAUUCCGUGGGGACCGUCCCCUCGGUAAUGGCGAAUGGGACCCA [C3U A51U],0.992
3,GGCCGGCAUGGUCCCAGCCUGCUCGCUGGCGCCGGCUGGGCAACAUUCCGAGGGGACCGUCCCCUCGGUAAUCGCGAAUGGGACCCA [C21G G73C],0.17
4,GGCCGGCAUGGUCCCAGCCUCCUCGCUGGCGCCGGCUGGGCAACAUUCCGAGGGGACCGGCCCCUCGGUAGUGGCGAAUGGGACCCA [U60G A71G],0.831
5,GGCCGGCAUGGUCCCAGCCUCCUCCCUGGCGCCGGCUGGGCAACAUUCCGAGGGGACCGUCCCCUCGGUAAUGGCGAAUGGGACACA [G25C C85A],0.0594
6,GGCCGGCAUGGUCCCAGCCUCCUCGCUAGCACCGGCUGGGCAACAUUCCGAGGGGACCGUCCCCUCGGUAAUGGCGAAUGGGACCCA [G28A G31A],0.101
7,GGCCGGCAUGGUCCCAGCCUCCUCGCUGACGCCGGCUGGGCAACAUUCCGAGGGGACCGUCCCCUCGGUAAUGGCGAAUUGGACCCA [G29A G80U],0.0283
8,GGCCGGCAUGGUCCCAGCCUCCUCGCUGCCGCCGGCUGGGCAACAUUCCGAGGGGACCGUCCCCUCGGUAAUGUCGAAUGGGACCCA [G29C G74U],0
9,GGCCGGCCUGGUCCCAGCCUCCUCGCUGGCGCCGGCCGGGCAACAUUCCGAGGGGACCGUCCCCUCGGUAAUGGCGAAUGGGACCCA [A8C U37C],0.997
10,GGCCGGCAUGGUCCCAGCCUCCGCGCUGGCGCCGGCUGGGCAACAUUCCGAGGGGACGGUCCCCUCGGUAAUGGCGAAUGGGACCCA [U23G C58G],0.72
11,GGCCGGCAUGGUCCCAGCCUCCUCGCUGGCGCCGGCUGGGAAACAUUCCGAGGGGGCCGUCCCCUCGGUAAUGGCGAAUGGGACCCA [C41A A56G],1.15
12,GGCCGGCAUGGUCCCAGCCUCCUCGCUGGAGCCGGCUGGGCAUCAUUCCGAGGGGACCGUCCCCUCGGUAAUGGCGAAUGGGACCCA [C30A A43U],0.0692
13,GGCCGGCAUGGUCACAGCCUCCUCGCUGGCGCCGGCUGGGCAACAUUGCGAGGGGACCGUCCCCUCGGUAAUGGCGAAUGGGACCCA [C14A C48G],0.969
14,GGCCGGCAUGGUCCCACCCUCCUCGCUGGCGCCGGCUGGGCAACAUUCCGAGGGGACCGUCCCCUCGGUAAUGGCGAAUGGGACCCC [G17C A87C],0.354
15,GGCCGGCAUCGUCCCAGCCUCCUCGCUGGCGCCGGCUGGGCAACAUUCCGAGGGGAUCGUCCCCUCGGUAAUGGCGAAUGGGACCCA [G10C C57U],1.11
16,GGCCGGCAUGGUGCCAGCCUCCUCGCUGGCGCCGGCUGGGCAACAUUCCGAGGGGACCGUCCGCUCGGUAAUGGCGAAUGGGACCCA [C13G C63G],0.133
17,GGCCGGCAUGGUCCCAGCCUCCUCGCUGGCGCCGGCUGGGCAACAUUCCGAGGGGACCGUCCGCUCGGAAAUGGCGAAUGGGACCCA [C63G U69A],1.16
18,GGCCGGCAUGGUCCCAGCCUCCUCGCUGGCGCCGGCUGGGCAACAUUCCGAGGGGACUGUCCCCUCCGUAAUGGCGAAUGGGACCCA [C58U G67C],1.07
19,GGCCGGCAUGGUCCCAGCCGCCUCGCUGGCGCCGGCUGGGAAACAUUCCGAGGGGACCGUCCCCUCGGUAAUGGCGAAUGGGACCCA [U20G C41A],0.145
20,GGCCGGCAUGGUCCCAGCCUCCUCGCUAGCGCCGGCUGGGCAACAUUCCGAGGGGACCGUCCCCUCGGUAAUGGCGAAUGGGUCCCA [G28A A83U],0.0308

# Reference: the RNAGym collection of RNA variant scans (doi:10.7554/elife.80360)
